# Source: patent US7880021B2, “Compounds and kits for the detection and the quantification of cell apoptosis” (Centre National de la Recherche Scientifique (CNRS), priority 2005, dated 2011)
# Numbered stars: 1 amine (or outer) side, 2 acyl side, 3 side chain; on linkers, the order of the positions; unused ones are H or OH. Bridge positions count the residues as written; N and C are the ends. Square brackets hold non-standard residues; d marks the D form. Peptide text beside a SMILES is read from it. I, II: the chains in the order shown. Actinocin(9to1) = Cc1c2oc3c(C)ccc(C(=O)[*:1])c3nc-2c(C(=O)[*:2])c(N)c1=O; NMeV = CN[C@H](C(=O)O)C(C)C; Sar = CNCC(=O)O
# B1: annexin V-FITC: Annexin V labelled with fluorescein isothiocyanate, kit from Immunotech; reference apoptosis marker (protein, UniProt P08758 2-320, looked up)
# Annexin A5: AQVLRGTVTDFPGFDERADAETLRKAMKGLGTDEESILTLLTSRSNAQRQEISAAFKTLFGRDLLDDLKSELTGKFEKLIVALMKPSRLYDAYELKHALKGAGTNEKVLTEIIASRTPEELRAIKQVYEEEYGSSLEDDVVGDTSGYYQRMLVVLLQANRDPDAGIDEAQVEQDAQALFQAGELKWGTDEEKFITIFGTRSVSHLRKVFDKYMTISGFQIEETIDRETSGNLEQLLLAVVKSIRSIPAYLAETLYYAMKGAGTDDHTLIRVMVSRSEIDLFNIRKEFRKNFATSLYSMIKGDTSGDYKKALLLLCGEDD
# modifications: FITC label
# Experiments:
# CEM T cells = assay: Determination of hypodiploid DNA with PI by flow cytometry; type: cell-based, human; conditions: actinomycin D 0.5 μg/ml for 18 h; mean±SEM
# Description: (§1) Human lymphoid CEM T cells were cultured in X-vivo 15 medium (Cambrex, France) at 37° C. in humidified 5% CO2 atmosphere. Cell viability was checked by trypan blue exclusion. Cells were seeded at 5×10^5 cells/ml in the presence or absence of actinomycin D (0.5 μg/ml) for 18 h. Cells were pelleted by centrifugation at 1500 rpm for 5 min and resuspended at 1×10^6 cells/ml in X-vivo 15 medium for experiments.
# To verify the proportion of apoptotic cells, measurements of hypodiploid DNA with PI by flow cytometry have been performed. After apoptotic treatment, cells were harvested and numbered. Concentration in a 70% ethanol solution in H2O was adjusted to 5×10^5 cells/ml and fixation was allowed to proceed for at least 1 h at 4° C. Cells were washed once in Hank's balanced salt solution (HBSS) before resuspension in HBSS containing RNAse (0.5 mg/ml), PI (0.1 mg/ml) and incubation for 15 min at room temperature in the dark. Samples were analysed by flow cytometry using the CELLQuest software (Becton Dickinson, San Jose, Calif.). Under these conditions, the content of hypodiploid DNA in CEM T cells was 30±2% (mean±SEM).
# T lymphoblastoid cells = assay: Flow cytometry analysis with annexin V-FITC, PI and F2N12S; type: cell-based, human
# Text: FIG. 6: Flow cytometry analysis of T lymphoblastoid cells treated by actinomycin D. Cells were stained by annexin V-FITC, PI and F2N12S. In (a), Annexin V-FITC and PI were selectively excited at 488 nm. Cells are sorted into living, dead and apoptotic cell populations. In (b), F2N12S is selectively excited at 407 nm. Living cells are discriminated from apoptotic and necrotic cells. In (c), the PI fluorescence intensities are plotted versus the T*/N* ratio of F2N12S. Living cells are in green, apoptotic cells are in cyan and dead cells are in orange. In (d), the populations sorted using the F2N12S/PI couple were colored according to their response with the annexin V/PI couple. The wavelengths of maximal transmission and bandwidths of used filters are indicated in brackets.
# FIG. 7: Comparison of the intensiometric response of annexin V-FITC (a) with the ratiometric fluorescence response of F2N12S (b). Living, dead and apoptotic cells were identified as described in FIG. 6, by using either the annexin V-FITC/PI (a) or the F2N12S/PI (b) couple of dyes.
# FIG. 8: Comparison of the response of annexin V-FITC and F2N12S on non-treated T lymphoblastoid cells stained by annexin V-FITC, PI and F2N12S. In (a), annexin V-FITC and PI were selectively excited at 488 nm. In (b), F2N12S is selectively excited at 407 nm. Cells are sorted into living and dead cell populations.
# as §1
# For the validation of F2N12S in cell cytometry, we used a FASCARIA™ (cell sorter) (BD Biosciences, CA, USA) equipped with an argon laser (488 nm) and a diode laser (407 nm) and emission filters DF30, DF42 and DF20 centered at 530 nm, 585 nm and 610 nm, respectively. The optical pathways corresponding to the argon laser and to the diode laser are independent. Data were analyzed using the FACSDIVA™ (cell sorter) Software (BD Biosciences). The granulation, size and fluorescence intensity were recorded at a rate of ˜1000 cells per second.
# T lymphoblastoid cells were treated with actinomycin D and labeled simultaneously by FITC-labeled annexin V, propidium iodide (PI) and F2N12S. […] The emissions of FITC and PI were collected in the spectral regions of 515-545 nm and 600-620 nm, respectively. […] The emission light in this case was collected in two spectral regions: at 515-545 nm to monitor the emission of the N* band and 564-606 nm to collect the emission of the T* band (FIG. 6b). […] The second one is characterized by a high N*/T* intensity ratio (shown in red) and can be assigned to apoptotic and dead cells.
# The probe of the invention F2N12S has been combined with PI and the fluorescence intensities of PI have been represented as a function of the T*/N* ratio of F2N12S (FIG. 6c). In this case, the populations of apoptotic and dead cells are clearly discriminated by using the differences in the PI intensities. […] This conclusion was further strengthened when the populations discriminated by the F2N12S/PI couple were colored according to their response with the annexin V-FITC/PI couple (FIG. 6d).
# T lymphocytes = assay: Laser scanning confocal ratiometric imaging of T lymphocytes; type: cell-based
# Description: FIG. 9: Laser scanning confocal imaging of T lymphocytes stained with annexin V-FITC (a) and F2N12S (b and c). Combination of transmission and fluorescence images of cells treated with actinomycin D for 18 hours (please complete this sentence). […] Due to their low binding to annexin V, normal cells are not visualized in the fluorescence images. (b and c) Ratiometric images of normal (b) and actinomycin D-treated (c) cells stained with 0.2 μM F2N12S. […] The size of the images is 60×73.1 μm.
# FIG. 10: Time-series of confocal fluorescence ratiometric images of actinomycin D-treated T lymphocytes stained with F2N12S. The cells were treated with actinomycin D for 18 hours and then, incubated with the probe (0.2 μM) for 5 min. Images were recorded at 1 min (a), 10 min (b) and 20 min (c) post incubation. […] The size of the images is 60×73.1 μm.
# For collecting cell images, a Laser Scanning Confocal Imaging System MRC-1024 (Bio-Rad) was used. Cells in chambered cover glass were prepared by following the preparation procedure described above. The 442 nm line of a HeCd laser was used as the excitation light source. Emission was collected by using two filters: 485/30 for the N* band and 585LP for the T* band. Collected images were analyzed by the Amira 3.0 software.
# To further compare F2N12S and annexinV-derived probes, two-color ratiometric images of F2N12S-labeled cells undergoing apoptosis were recorded by laser scanning confocal microscopy and compared with intensity based images obtained using annexin V-FITC. […] Moreover, the fluorescence intensity of apoptotic cells varies considerably from cell to cell. These differences are difficult to interpret since the intensity depends on the probe concentration as well as on the size and confluence of the cells. […] According to our spectroscopy and flow cytometry data, the latter cells are apoptotic. […] Thus, unlike annexin V-FITC, these probes provide an absolute parameter, the intensity ratio, which can be calibrated, and can characterize the level of apoptosis independently of the probe/cell concentration and the excitation light intensity. In addition, the inventors have observed that in normal cells and cells on the initial steps of apoptosis, the T*/N* intensity ratio is not evenly distributed within the plasma membrane of a given cell. This may indicate an inhomogeneous lipid composition of their plasma membranes that is likely related to the presence of lipid domains.
# The inventors also follow apoptotic transformation of the plasma membrane as a function of time. Normal and actinomycin D-treated cells were stained with the corresponding probe and the fluorescence images were subsequently recorded during 20 min. […]
# [1] = actinomycin D-treated cells, probe combined with PI
Molecule,content of hypodiploid DNA (CEM T cells),percentage of apoptotic cells (T lymphoblastoid cells; [1]),percentage of dead cells (T lymphoblastoid cells; [1]),percentage of living cells (T lymphoblastoid cells; [1]),percentage of dead cells (T lymphoblastoid cells; non-treated T lymphoblastoid cells),"time-dependent change of the fluorescence images (T lymphocytes; actinomycin D-treated cells, images recorded during 20 min)",which cells are stained in fluorescence images (T lymphocytes; normal and actinomycin D-treated cells)
"Cc1c2oc3c(C)ccc(C(=O)N[C@@H]4C(=O)N[C@H](C(C)C)C(=O)N5CCC[C@H]5C(=O)N(C)CC(=O)N(C)[C@@H](C(C)C)C(=O)O[C@@H]4C)c3nc-2c(C(=O)N[C@@H]2C(=O)N[C@H](C(C)C)C(=O)N3CCC[C@H]3C(=O)N(C)CC(=O)N(C)[C@@H](C(C)C)C(=O)O[C@@H]2C)c(N)c1=O [actinomycin D, Actinomycin D] (I: T[dV]P[Sar][NMeV] / II: T[dV]P[Sar][NMeV]; ester I:1-I:C, II:1-II:C; linker I:N-II:N via Actinocin(9to1))",30±2%,,,,,,
B1,,18%,49%,33%,5%,not possible to detect any time-dependent changes,labels only apoptotic and necrotic cells
